In patent US20260265392A1 (TSINGHUA UNIVERSITY, published 2026):

Tests used:
[1] = biological target: T1, recombinant protein (SUM)5-DNB (Alexa647 label in the imaging experiment (site not stated)); experiment: fluorescence imaging of SJSA-1 cells, 100 nM each; co-localization (FIG. 3A, 3B)
T1 construct: Fusion of a multivalent domain with a nanobody; also called (SUM)5-DNB (Green)
Source text: (§1) Wherein, “Anti DR5” and “Anti CXCR4” respectively represent the fluorescence images of endogenous DR5 and CXCR4 obtained by immunofluorescence staining with DR5 antibody (Abcam, ab8416) and CXCR4 antibody (Protein Tech, 60042-1-Ig). […] The horizontal axis represents the relative distance along the straight path, and the vertical axis represents the relative fluorescence intensity measured at the corresponding position. […] From left to right, they correspond to treatment groups 1 to 3 listed in Example 2. […] The horizontal axis represents various recombinant protein treatment combinations with a final concentration of 100 nM. The vertical axis represents the fluorescence area corresponding to each spot.
(§2) The above recombinant protein combinations were added to the culture medium to a final concentration of 100 nM. The added culture medium was mixed, incubated at 37° C. for about 1 min, and then imaged by total internal reflection fluorescence microscopy (TIRF).

[2] = biological target: T2, CXC motif chemokine receptor 4 (CXCR4) (human, UniProt P61073 1-352); experiment: immunofluorescence of endogenous CXCR4 on SJSA-1 cells with labelled fusion proteins; co-localization (FIG. 3A, 3B)
T2 construct: whole, on cells; In the assays CXCR4 is the endogenous receptor of human cells; also called chemokine receptor CXCR4; endogenous CXCR4
T2 sequence (P61073 whole entry, the tested form may be a part): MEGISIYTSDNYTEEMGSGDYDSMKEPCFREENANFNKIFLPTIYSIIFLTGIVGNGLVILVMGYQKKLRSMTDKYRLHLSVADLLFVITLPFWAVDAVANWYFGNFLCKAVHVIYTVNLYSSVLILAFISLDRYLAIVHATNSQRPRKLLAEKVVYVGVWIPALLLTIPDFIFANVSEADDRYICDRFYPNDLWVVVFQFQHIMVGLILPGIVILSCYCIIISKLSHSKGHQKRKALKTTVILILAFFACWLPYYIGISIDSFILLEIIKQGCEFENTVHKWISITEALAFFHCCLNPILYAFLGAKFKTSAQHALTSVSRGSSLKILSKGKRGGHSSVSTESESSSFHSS
Source text: as §1, §2

[3] = biological target: T3, recombinant protein (SUM)3-DNB (Alexa647 label in the imaging experiment only (site not stated); no label is stated for the apoptosis assays); experiment: fluorescence imaging of SJSA-1 cells; co-localization (FIG. 5A, 5B)
T3 construct: Fusion of a multivalent domain with a nanobody; also called (SUM)3-DNB (Green); fusion protein (SUM)3-DNB
T3 sequence (chain, as listed by the source): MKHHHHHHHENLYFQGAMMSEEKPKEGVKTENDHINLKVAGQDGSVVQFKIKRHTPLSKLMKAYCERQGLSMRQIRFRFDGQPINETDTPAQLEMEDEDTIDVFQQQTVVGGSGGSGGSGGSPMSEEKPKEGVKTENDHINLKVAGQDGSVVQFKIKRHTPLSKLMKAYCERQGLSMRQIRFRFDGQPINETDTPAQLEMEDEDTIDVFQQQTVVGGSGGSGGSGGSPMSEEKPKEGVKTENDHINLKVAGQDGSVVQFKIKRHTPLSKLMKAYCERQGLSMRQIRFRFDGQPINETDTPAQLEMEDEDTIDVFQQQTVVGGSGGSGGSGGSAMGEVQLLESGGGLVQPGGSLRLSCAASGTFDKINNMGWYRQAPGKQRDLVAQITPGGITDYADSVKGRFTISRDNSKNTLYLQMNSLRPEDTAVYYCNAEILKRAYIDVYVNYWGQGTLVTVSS
Source text: (§3) Wherein, “Anti-DR5” and “Anti-CXCR4” respectively represent the fluorescence images of endogenous DR5 and CXCR4 obtained by immunofluorescence staining with DR5 antibody (Abcam, Catalog No. ab8416) and CXCR4 antibody (Protein Tech, Catalog No. 60042-1-Ig). […] The horizontal axis represents the relative distance along the straight path, and the vertical axis represents the relative fluorescence intensity measured at the corresponding position. […] The horizontal axis represents various recombinant protein treatment combinations with a final concentration of 100 nM. The vertical axis represents the fluorescence area corresponding to each spot.
as §2
(§4) By the same method as in Example 2, the total internal reflection fluorescence microscopy (TIRF) imaging of the following recombinant protein combination against the human osteosarcoma cell line SJSA-1 was measured, and the results are shown in FIG. 5: [0136] Treatment group: combination of (SIM)₃-CNB (Red) and (SUM)₃-DNB (Green) [0137] Control group: combination of (SIM)₃ (Red) and (SUM)₃ (Green)

[4] = biological target: T2, CXC motif chemokine receptor 4 (CXCR4); experiment: immunofluorescence of endogenous CXCR4 on SJSA-1 cells with labelled fusion proteins; co-localization (FIG. 5A, 5B)
Source text: as §3, §2, §4

[5] = biological target: T2, CXC motif chemokine receptor 4 (CXCR4); experiment: laser confocal imaging of SJSA-1 cells: membrane puncta only with ligand-fused domains; the receptor was not stained in this example
Procedure: (§5) Human osteosarcoma SJSA-1 cells (purchased from ATCC (https://www.atcc.org/)) were treated with the above-labeled recombinant proteins or control solution, and then immediately subjected to laser confocal scanning microscopy imaging. The steps are as follows:
(§6) Human osteosarcoma cell line SJSA-1 was cultured in RMPI-1640 medium containing 10% fetal bovine serum (FBS, purchased from Gibco) and 1× penicillin-streptomycin (purchased from HyClone) to 70%-80% confluence. The following combinations of recombinant proteins were added to the culture medium at the same time: (1) (SIM)₆-R4L (Red) and (SUM)₅ (Green), (2) (SIM)₆ (Red) and (SUM)₅-TRAIL (Green), (3) (SIM)₆-R4L (Red) and (SUM)₅-TRAIL (Green), (4) (SIM)₆ (Red) and (SUM)₅ (Green), to a final concentration of 100 nM respectively. The culture medium after adding the recombinant protein was mixed, incubated at 37° C. for about 1 min, and then imaged using a NIKON AIR HD25 laser confocal microscope (purchased from Nikon, Inc.).

[6] = biological target: T4, multivalent domain (SUM)5 (Alexa647 label in the imaging experiment (site not stated)); experiment: laser confocal imaging of SJSA-1 cells with (SIM)6-R4L (Red) and (SUM)5 (Green), 100 nM each (combination 1, FIG. 2A); co-localization
T4 construct: also called (SUM)5 (Green)
T4 sequence (chain, as listed by the source): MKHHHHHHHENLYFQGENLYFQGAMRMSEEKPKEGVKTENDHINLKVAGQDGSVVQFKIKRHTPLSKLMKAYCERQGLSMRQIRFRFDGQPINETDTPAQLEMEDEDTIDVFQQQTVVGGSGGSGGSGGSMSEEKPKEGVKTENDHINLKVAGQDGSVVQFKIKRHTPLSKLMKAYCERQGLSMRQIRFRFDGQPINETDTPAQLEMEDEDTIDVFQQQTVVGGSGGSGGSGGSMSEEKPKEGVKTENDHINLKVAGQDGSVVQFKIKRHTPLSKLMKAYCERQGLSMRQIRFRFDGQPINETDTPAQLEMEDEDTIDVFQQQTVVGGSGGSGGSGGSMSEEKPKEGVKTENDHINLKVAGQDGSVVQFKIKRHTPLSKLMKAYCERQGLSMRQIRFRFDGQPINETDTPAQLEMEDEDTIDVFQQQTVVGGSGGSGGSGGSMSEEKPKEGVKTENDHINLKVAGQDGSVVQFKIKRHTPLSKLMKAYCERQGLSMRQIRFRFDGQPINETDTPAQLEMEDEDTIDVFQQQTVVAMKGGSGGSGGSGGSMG
Procedure: as §5, §6

T1 sequence (chain, as listed by the source): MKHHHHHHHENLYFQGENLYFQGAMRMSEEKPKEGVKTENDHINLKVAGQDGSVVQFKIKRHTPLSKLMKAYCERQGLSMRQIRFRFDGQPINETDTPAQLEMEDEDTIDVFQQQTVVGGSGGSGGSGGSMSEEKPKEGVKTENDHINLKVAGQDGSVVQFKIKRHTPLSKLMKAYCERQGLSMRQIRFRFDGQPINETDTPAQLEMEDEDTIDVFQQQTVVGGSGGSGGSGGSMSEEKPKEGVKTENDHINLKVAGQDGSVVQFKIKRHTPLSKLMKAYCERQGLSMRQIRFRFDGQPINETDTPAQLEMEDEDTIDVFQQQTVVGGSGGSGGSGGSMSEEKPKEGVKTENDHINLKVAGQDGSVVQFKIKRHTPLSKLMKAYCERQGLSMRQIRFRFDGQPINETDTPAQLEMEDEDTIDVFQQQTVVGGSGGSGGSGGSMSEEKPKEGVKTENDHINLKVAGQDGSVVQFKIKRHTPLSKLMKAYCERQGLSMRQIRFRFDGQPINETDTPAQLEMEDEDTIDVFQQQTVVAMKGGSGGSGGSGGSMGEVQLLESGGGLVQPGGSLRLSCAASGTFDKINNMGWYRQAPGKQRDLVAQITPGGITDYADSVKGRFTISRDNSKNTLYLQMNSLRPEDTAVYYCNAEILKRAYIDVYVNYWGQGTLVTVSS

B1: recombinant protein (SIM)6-CNB (VHH)
chain: MKHHHHHHHENLYFQGAMSSKVDVIDLTIESSSDEEEDPPAKRGGSGGSGGSGGSKVDVIDLTIESSSDEEEDPPAKRGGSGGSGGSGGSKVDVIDLTIESSSDEEEDPPAKRGAMKGGSGGSGGSGGSMSSKVDVIDLTIESSSDEEEDPPAKRGGSVGSGGSGGSKVDVIDLTIESSSDEEEDPPAKRGGSGGSGGRGGSKVDVIDLTIESSSDEEEDPPAKRGAMRCWGGSGGSGGSGGSMGEVQLMESGGGLVQAGGSLRLSCAASGRTFNNYAMGWFRRAPKGEREFVAAITRSGVRSGVSAIYGDSVKDRFTISRDNAKNTLYLQMNSLKPEDTAVYTCAASAIGSGALRRFEYDYSGQGTQVTVSS
modifications: Alexa594 label in the imaging experiment (site not stated)
notes: Fusion of a multivalent domain with a nanobody; also called (SIM)6-CNB (Red)
**Q.** Does B1 bind [1]?
**A.** binds

**Q.** Does B1 bind [2]?
**A.** binds

B2: recombinant protein (SIM)3-CNB (VHH)
chain: MKHHHHHHHENLYFQGAMKVDVIDLTIESSSDEEEDPPAKRGGSGGSGGSGGSMMKVDVIDLTIESSSDEEEDPPAKRGGSGGSGGSGGSMMKVDVIDLTIESSSDEEEDPPAKRGGSGGSGGSGGSMGEVQLMESGGGLVQAGGSLRLSCAASGRTFNNYAMGWFRRAPKGEREFVAAITRSGVRSGVSAIYGDSVKDRFTISRDNAKNTLYLQMNSLKPEDTAVYTCAASAIGSGALRRFEYDYSGQGTQVTVSS
modifications: Alexa594 label in the imaging experiment (site not stated)
notes: Fusion of a multivalent domain with a nanobody; also called (SIM)3-CNB (Red); fusion protein (SIM)3-CNB
**Q.** Does B2 bind [3]?
**A.** binds

**Q.** Does B2 bind [4]?
**A.** binds

B3: recombinant protein (SIM)6-R4L (ligand)
chain: MKHHHHHHHENLYFQGAMSSKVDVIDLTIESSSDEEEDPPAKRGGSGGSGGSGGSKVDVIDLTIESSSDEEEDPPAKRGGSGGSGGSGGSKVDVIDLTIESSSDEEEDPPAKRGAMKGGSGGSGGSGGSMSSKVDVIDLTIESSSDEEEDPPAKRGGSVGSGGSGGSKVDVIDLTIESSSDEEEDPPAKRGGSGGSGGRGGSKVDVIDLTIESSSDEEEDPPAKRGAMRCWGGSGGSGGSGGSMGMCYRKCRGGRRWCYQKCGGSGGSGGSGGS
modifications: Alexa594 label in the imaging experiment (site not stated)
notes: also called (SIM)6-R4L (Red)
**Q.** What does the source list for B3?
**A.** binding result [5]: binds; binding result [6]: binds
